Consider 17 molecules from patent US20130261013A1.

Primed or numbered codes have the meaning given here. Side chains are listed from the residue outwards. Ends that are not written are not given here. * marks the point of attachment. dT′ = N3-(decanoic acid)-2'-deoxythymidine (dT probe 19), Cc1cn([C@H]2C[C@H](O)[C@@H](CO)O2)c(=O)n(CCCCCCCCCC(=O)*)c1=O; coumarin = 7-methoxycoumarin-3-carboxylic acid, COc1ccc2cc(C(=O)*)c(=O)oc2c1; 25OHVD3 = 25-hydroxyvitamin D3, linked at its carbon 11; Dansyl = CN(C)c1cccc2c(S(=O)(=O)*)cccc12; 8C = 8-carbon spacer; Ahx = NCCCCCC(=O)O; VD3 = vitamin D3 Where only a bound is given, the exact number is not on record here.

In test [1] the target is thymidine kinase. Briefly: fluorescence screen, 2 µM binder, 2 and 4 µM TK; estimate for 'hits'.
Test [2] deals with T1, vitamin D binding protein.
T1 sequence (P02774 17-474, species assumed, looked up): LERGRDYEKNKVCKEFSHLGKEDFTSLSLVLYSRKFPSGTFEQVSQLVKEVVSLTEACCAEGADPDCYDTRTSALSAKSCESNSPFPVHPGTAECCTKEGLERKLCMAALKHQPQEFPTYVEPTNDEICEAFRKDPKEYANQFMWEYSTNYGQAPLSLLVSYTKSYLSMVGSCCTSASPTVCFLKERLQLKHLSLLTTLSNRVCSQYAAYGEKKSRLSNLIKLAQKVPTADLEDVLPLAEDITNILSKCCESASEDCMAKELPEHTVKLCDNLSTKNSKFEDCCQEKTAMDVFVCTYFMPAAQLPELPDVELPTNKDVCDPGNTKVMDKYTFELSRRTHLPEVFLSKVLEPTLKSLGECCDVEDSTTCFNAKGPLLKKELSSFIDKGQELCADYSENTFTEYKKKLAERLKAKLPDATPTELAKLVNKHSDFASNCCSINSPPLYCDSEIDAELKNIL
Briefly: SPR (Biacore 2000), DBP immobilized on CM5, 1:1 model.

Take Ac-NAADLEAAIK(Dansyl)HLAEALK(dT′)ARGPVDAAQLAEQLARAFEAFARAG (designed binder) [2-C10L17-dT]: the Kd (in general, a measure of binding affinity in units of concentration) in test [1] is less than 20 nM.

In test [2], Ac-NAADLEAK([Ahx-25OHVD3])IRHLREK(coumarin)LAARGPRDAAQLAEQLARRFERFARAG (designed binder) [4-C15L8-6C-25OHVD3 (coumarin)] came in with a Kd of 50 nM.

On to NAADLEARIRHLRERLAARGPK([Ahx-VD3])DAK(Dansyl)QLAEQLARAFERFARAG (designed binder, not fully specified (N-terminus, C-terminus)) [4-C25L22-6C-VD3 (dansyl)], for which the equilibrium dissociation constant (Kd) in test [2] is 1300 nM.

In test [2], Ac-NAADLEAK([8C-25OHVD3])IRHLREK(Dansyl)LAARGPRDAAQLAEQLARRFERFARAG (designed binder, not fully specified (C-terminus)) [4-C15L8-8C-25OHVD3 (dansyl)] showed an equilibrium dissociation constant (Kd) of 110 nM.

Ac-NAADLEAK([Ahx-25OHVD3])IRHLAEK(Dansyl)LAARGPVDAAQLAEQLARRFEAFARAG (designed binder) [3-C15L8-6C-25OHVD3 (dansyl)] registered a Kd in test [2] of 1300 nM.

Ac-NAADLEAK([8C-25OHVD3])IRHLAEK(Dansyl)LAARGPVDAAQLAEQLARRFEAFARAG (designed binder) [3-C15L8-8C-25OHVD3 (dansyl)] showed a Kd in test [2] of 1100 nM.

Turning to Ac-NAADLEARIK(Dansyl)HLRERLK(dT′)ARGPRDAAQLAEQLARAFERFARAG (designed binder) [4-C10L17-dT], the dissociation constant Kd in test [1] is less than 20 nM.

In test [2], Ac-NAADLEARIK(Dansyl)HLAERLK([8C-25OHVD3])ARGPVDAAQLAEQLARAFEAFARAG (designed binder) [3-C10L17-8C-25OHVD3 (dansyl)] had a Kd of 1200 nM.

As to NAADLEARIRHLRERLAARGPK([Ahx-25OHVD3])DAK(Dansyl)QLAEQLARAFERFARAG (designed binder, not fully specified (N-terminus, C-terminus)) [4-C25L22-6C-25OHVD3 (dansyl)], the Kd in test [2] is 750 nM.

Molecule Ac-NAADLEAKIRHLREK(Dansyl)LAARGPRDAAQLAEQLARRFERFARAG (designed binder, not fully specified (residue 8)) [4-C15L8-6C-VD3 (dansyl)] had a dissociation constant Kd in test [2] of 1800 nM.

For NAADLEARIRHLRERLAARGPRDAAQLAEQLARK([Ahx-25OHVD3])FEK(Dansyl)FARAG (designed binder, not fully specified (N-terminus, C-terminus)) [4-C37L34-6C-25OHVD3 (dansyl)], the Kd in test [2] was 190 nM.

For the molecule NAADLEARIRHLRERLAARGPRDAAQLAEQLARK([Ahx-VD3])FEK(Dansyl)FARAG (designed binder, not fully specified (N-terminus, C-terminus)) [4-C37L34-6C-VD3 (dansyl)], the Kd in test [2] came to 900 nM.

With Ac-NEADLEAK([8C-25OHVD3])IRHLAEK(Dansyl)LAARGPVDAAQLAEQLARAFEAFARAG (designed binder) [2-C15L8-8C-25OHVD3 (dansyl)], the equilibrium dissociation constant (Kd) in test [2] is 480 nM.

Ac-NAADLEARIK(Dansyl)HLRERLKARGPRDAAQLAEQLARAFERFARAG (designed binder, not fully specified (residue 17)) [4-C10L17-6C-VD3 (dansyl)] displayed a Kd in test [2] of 890 nM.

As to Ac-NAADLEAAIRHLAERLAARGPK(dT′)DAK(Dansyl)QLAEQLARAFEAFARAG (designed binder) [3-C25L22-dT], the Kd in test [1] is less than 20 nM.

Ac-NEADLEAK([8C-25OHVD3])IRHLAEK(Dansyl)LEARGPEDAEQLAEQLARAFEAFARAG (designed binder) [1-C15L8-8C-25OHVD3 (dansyl)] yielded a Kd in test [2] of 290 nM.

For Ac-NAADLEAK(dT′)IRHLAEK(Dansyl)LAARGPVDAAQLAEQLARRFEAFARAG (designed binder) [3-C15L8-dT], the Kd in test [1] is less than 20 nM.
